Molecular target: T1, PUF4 RNA-binding domain (Saccharomyces cerevisiae, UniProt P25339 537-888)
T1 sequence: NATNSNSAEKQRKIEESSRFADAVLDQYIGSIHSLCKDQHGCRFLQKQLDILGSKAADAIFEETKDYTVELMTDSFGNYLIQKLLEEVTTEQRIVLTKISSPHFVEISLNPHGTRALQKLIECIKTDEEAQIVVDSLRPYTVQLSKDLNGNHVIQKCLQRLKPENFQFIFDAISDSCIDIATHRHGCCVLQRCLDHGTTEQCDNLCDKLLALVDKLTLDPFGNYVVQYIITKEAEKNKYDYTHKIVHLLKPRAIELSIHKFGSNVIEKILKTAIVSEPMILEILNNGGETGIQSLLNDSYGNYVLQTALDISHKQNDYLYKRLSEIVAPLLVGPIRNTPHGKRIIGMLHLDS
Experiment: Mg; RNA-MaP; 20 mM Na-HEPES pH 7.4, 30 mM KOAc, 0.75 mM MgCl2, 0.1% Tween-20, 5% glycerol, 0.1 mg/mL BSA, 2 mM DTT; 25 C; 0.0125-409.6 nM protein
Details: tags: N-His6-TEV cleaved; C-SNAP kept, Cy3B-labelled; label: tethered on chip by stalled RNA polymerase

Row | Binder | Kd [nM]
1 | UCUCUUUGUAGCCAUCUCUU (ssRNA) [Ic_S1_P3E.1_K3.1_C3.1_H3.1_A3.1_[T5G]_[A6C]_F3.1_[T7C]_T3.1] | 1850
2 | UCUCUUUGUAGCAAUCUCUU (ssRNA) [Ic_S1_P3E.1_K3.1_C3.1_H3.1_A3.1_[T5G]_[A6C]_F3.1_[T7A]_T3.1] | 1060
3 | UCUCUUUGUAGCCGUCUCUU (ssRNA) [Ic_S1_P3E.1_K3.1_C3.1_H3.1_A3.1_[T5G]_[A6C]_F3.1_[T7C]_[A8G]_T3.1] | > 2300
4 | UCUCUUUGUAGUCGUCUCUU (ssRNA) [Ic_S1_P3E.1_K3.1_C3.1_H3.1_A3.1_[T5G]_[A6T]_F3.1_[T7C]_[A8G]_T3.1] | > 2300
5 | UCUCUUUGUAGCAUUCUCUU (ssRNA) [Ic_S1_P3E.1_K3.1_C3.1_H3.1_A3.1_[T5G]_[A6C]_F3.1_[T7A]_[A8T]_T3.1] | 42.4
6 | UCUCUUUGUAGUCAUCUCUU (ssRNA) [Ic_S1_P3E.1_K3.1_C3.1_H3.1_A3.1_[T5G]_[A6T]_F3.1_[T7C]_T3.1] | 2020
7 | UCUCUUUGUAGCUUUCUCUU (ssRNA) [Ic_S1_P3E.1_K3.1_C3.1_H3.1_A3.1_[T5G]_[A6C]_F3.1_[A8T]_T3.1] | 296
8 | UCUCUUUGUAGUAUUCUCUU (ssRNA) [Ic_S1_P3E.1_K3.1_C3.1_H3.1_A3.1_[T5G]_[A6T]_F3.1_[T7A]_[A8T]_T3.1] | 86.2
9 | Ic_S4_P4E.1_K4.1_C4.1_H4.1_A4.1_[T7G]_F4.1_T4.1 (ssRNA) RNA: UUUGACAACUGAUCGUUCUUUCUUGUAUAGUAUUCUUUCUCGAUCAGUUGUCUUU | 1.66
10 | Ia_S4_P4E.1_K4.1_C4.1_H4.1_A4.1_[T7A]_F4.1_T4.1 (ssRNA) RNA: UUUGACAACUGAUCGUUCUUUCUUGUAUAAUAUUCUUUCUCGAUCAGUUGUCUUU | 1.23
11 | Ia_S4_P4E.1_K4.1_C4.1_H4.1_A4.1_[T7C]_F4.1_T4.1 (ssRNA) RNA: UUUGACAACUGAUCGUUCUUUCUUGUAUACUAUUCUUUCUCGAUCAGUUGUCUUU | 0.515
12 | UCUCUUUGUAGUGUUCUCUU (ssRNA) [Ic_S1_P3E.1_K3.1_C3.1_H3.1_A3.1_[T5G]_[A6T]_F3.1_[T7G]_[A8T]_T3.1] | 659
13 | UCUCUUUGUUUAUAUCUCUU (ssRNA) [Ia_S1_P3E.1_K3.1_C3.1_H3.1_[A4T]_A3.1_F3.1_T3.1] | 478
14 | UCUCUUUGUAGUUGUCUCUU (ssRNA) [Ic_S1_P3E.1_K3.1_C3.1_H3.1_A3.1_[T5G]_[A6T]_F3.1_[A8G]_T3.1] | 1680
15 | UCUCUUUGUAGCUCUCUCUU (ssRNA) [Ic_S1_P3E.1_K3.1_C3.1_H3.1_A3.1_[T5G]_[A6C]_F3.1_[A8C]_T3.1] | > 2300
16 | Ib_S4_P5E.1_K5.1_C5.1_H5.1_[G2C]_A5.1_[T6A]_F5.1_T5.1 (ssRNA) RNA: UUUGACAACUGAUCGUUCUUUCUUCUAUAAUUAUUCUUUCUCGAUCAGUUGUCUUU | > 2300
17 | Ib_S4_P5E.1_K5.1_C5.1_H5.1_[A4C]_A5.1_[T5C]_F5.1_T5.1 (ssRNA) RNA: UUUGACAACUGAUCGUUCUUUCUUGUCCUAUUAUUCUUUCUCGAUCAGUUGUCUUU | 19.9
18 | Ib_S4_P5E.1_K5.1_C5.1_H5.1_[G2A]_A5.1_[A7G]_F5.1_T5.1 (ssRNA) RNA: UUUGACAACUGAUCGUUCUUUCUUAUAUUGUUAUUCUUUCUCGAUCAGUUGUCUUU | 904
19 | Ie_S4_P4E.1_K4.1_C4.1_H4.1_[+3C]_A4.1_F4.1_T4.1 (ssRNA) RNA: UUUGACAACUGAUCGUUCUUUCUUGUCAUAUUAUUCUUUCUCGAUCAGUUGUCUUU | 5.86
20 | Ia_S4_P5E.1_K5.1_C5.1_H5.1_A5.1_F5.1_[T9C]_T5.1 (ssRNA) RNA: UUUGACAACUGAUCGUUCUUUCUUGUAUUAUCAUUCUUUCUCGAUCAGUUGUCUUU | 72
21 | Ib_S4_P5E.1_K5.1_C5.1_H5.1_[T3C]_A5.1_[T5A]_F5.1_T5.1 (ssRNA) RNA: UUUGACAACUGAUCGUUCUUUCUUGCAAUAUUAUUCUUUCUCGAUCAGUUGUCUUU | 872
22 | Ib_S4_P5E.1_K5.1_C5.1_H5.1_[A4C]_A5.1_[A7C]_F5.1_T5.1 (ssRNA) RNA: UUUGACAACUGAUCGUUCUUUCUUGUCUUCUUAUUCUUUCUCGAUCAGUUGUCUUU | 83.8
23 | Ib_S4_P5E.1_K5.1_C5.1_H5.1_A5.1_[T6A]_[A7C]_F5.1_T5.1 (ssRNA) RNA: UUUGACAACUGAUCGUUCUUUCUUGUAUACUUAUUCUUUCUCGAUCAGUUGUCUUU | 2.42
24 | Ib_S4_P5E.1_K5.1_C5.1_H5.1_A5.1_[T5A]_[A7T]_F5.1_T5.1 (ssRNA) RNA: UUUGACAACUGAUCGUUCUUUCUUGUAAUUUUAUUCUUUCUCGAUCAGUUGUCUUU | 5.23
25 | Ib_S4_P5E.1_K5.1_C5.1_H5.1_[T3C]_A5.1_[A7T]_F5.1_T5.1 (ssRNA) RNA: UUUGACAACUGAUCGUUCUUUCUUGCAUUUUUAUUCUUUCUCGAUCAGUUGUCUUU | 414

Row | Binder | Kd [nM]
26 | Ib_S4_P5E.1_K5.1_C5.1_H5.1_A5.1_[T5C]_[T6A]_F5.1_T5.1 (ssRNA) RNA: UUUGACAACUGAUCGUUCUUUCUUGUACAAUUAUUCUUUCUCGAUCAGUUGUCUUU | 3.97
27 | Ib_S4_P5E.1_K5.1_C5.1_H5.1_[A4T]_A5.1_[T6A]_F5.1_T5.1 (ssRNA) RNA: UUUGACAACUGAUCGUUCUUUCUUGUUUAAUUAUUCUUUCUCGAUCAGUUGUCUUU | 16
28 | Ib_S4_P5E.1_K5.1_C5.1_H5.1_[G2A]_A5.1_[T6A]_F5.1_T5.1 (ssRNA) RNA: UUUGACAACUGAUCGUUCUUUCUUAUAUAAUUAUUCUUUCUCGAUCAGUUGUCUUU | 696
29 | Ib_S4_P5E.1_K5.1_C5.1_H5.1_A5.1_[T5A]_[A7G]_F5.1_T5.1 (ssRNA) RNA: UUUGACAACUGAUCGUUCUUUCUUGUAAUGUUAUUCUUUCUCGAUCAGUUGUCUUU | 15.3
30 | Ib_S4_P5E.1_K5.1_C5.1_H5.1_A5.1_[T5C]_[A7T]_F5.1_T5.1 (ssRNA) RNA: UUUGACAACUGAUCGUUCUUUCUUGUACUUUUAUUCUUUCUCGAUCAGUUGUCUUU | 1.71
31 | Ic_S4_P5E.1_K5.1_C5.1_H5.1_A5.1_[T6G]_[A7C]_F5.1_T5.1 (ssRNA) RNA: UUUGACAACUGAUCGUUCUUUCUUGUAUGCUUAUUCUUUCUCGAUCAGUUGUCUUU | 12.5
32 | Ia_S4_P5E.1_K5.1_C5.1_H5.1_A5.1_F5.1_[T8A]_T5.1 (ssRNA) RNA: UUUGACAACUGAUCGUUCUUUCUUGUAUUAAUAUUCUUUCUCGAUCAGUUGUCUUU | 6.15
33 | Ib_S4_P5E.1_K5.1_C5.1_H5.1_[T3C]_A5.1_[T5C]_F5.1_T5.1 (ssRNA) RNA: UUUGACAACUGAUCGUUCUUUCUUGCACUAUUAUUCUUUCUCGAUCAGUUGUCUUU | 204
34 | Ib_S4_P5E.1_K5.1_C5.1_H5.1_[T3C]_A5.1_[A7G]_F5.1_T5.1 (ssRNA) RNA: UUUGACAACUGAUCGUUCUUUCUUGCAUUGUUAUUCUUUCUCGAUCAGUUGUCUUU | 1520
35 | Ib_S4_P5E.1_K5.1_C5.1_H5.1_A5.1_[T5C]_[T6C]_F5.1_T5.1 (ssRNA) RNA: UUUGACAACUGAUCGUUCUUUCUUGUACCAUUAUUCUUUCUCGAUCAGUUGUCUUU | 1.7
36 | Ib_S4_P5E.1_K5.1_C5.1_H5.1_[A4C]_A5.1_[T5G]_F5.1_T5.1 (ssRNA) RNA: UUUGACAACUGAUCGUUCUUUCUUGUCGUAUUAUUCUUUCUCGAUCAGUUGUCUUU | 34.4
37 | Ie_S4_P4E.1_K4.1_C4.1_H4.1_[+3T]_A4.1_F4.1_T4.1 (ssRNA) RNA: UUUGACAACUGAUCGUUCUUUCUUGUUAUAUUAUUCUUUCUCGAUCAGUUGUCUUU | 5.86
38 | Ib_S4_P5E.1_K5.1_C5.1_H5.1_A5.1_[T6C]_[A7C]_F5.1_T5.1 (ssRNA) RNA: UUUGACAACUGAUCGUUCUUUCUUGUAUCCUUAUUCUUUCUCGAUCAGUUGUCUUU | 4.55
39 | Ib_S4_P5E.1_K5.1_C5.1_H5.1_A5.1_[T6A]_[A7G]_F5.1_T5.1 (ssRNA) RNA: UUUGACAACUGAUCGUUCUUUCUUGUAUAGUUAUUCUUUCUCGAUCAGUUGUCUUU | 10.7
40 | Ib_S4_P5E.1_K5.1_C5.1_H5.1_[G2T]_A5.1_[A7C]_F5.1_T5.1 (ssRNA) RNA: UUUGACAACUGAUCGUUCUUUCUUUUAUUCUUAUUCUUUCUCGAUCAGUUGUCUUU | > 2300
41 | Ib_S4_P5E.1_K5.1_C5.1_H5.1_[A4C]_A5.1_[A7G]_F5.1_T5.1 (ssRNA) RNA: UUUGACAACUGAUCGUUCUUUCUUGUCUUGUUAUUCUUUCUCGAUCAGUUGUCUUU | 112
42 | Ib_S4_P5E.1_K5.1_C5.1_H5.1_[T3C]_A5.1_[A7C]_F5.1_T5.1 (ssRNA) RNA: UUUGACAACUGAUCGUUCUUUCUUGCAUUCUUAUUCUUUCUCGAUCAGUUGUCUUU | 1630
43 | UCUCUUUGUAGUACUCUCUU (ssRNA) [Ic_S1_P3E.1_K3.1_C3.1_H3.1_A3.1_[T5G]_[A6T]_F3.1_[T7A]_[A8C]_T3.1] | 1210
44 | UCUCUUUGUAGUAAUCUCUU (ssRNA) [Ic_S1_P3E.1_K3.1_C3.1_H3.1_A3.1_[T5G]_[A6T]_F3.1_[T7A]_T3.1] | 1270
45 | UCUCUUUGUAGUCCUCUCUU (ssRNA) [Ic_S1_P3E.1_K3.1_C3.1_H3.1_A3.1_[T5G]_[A6T]_F3.1_[T7C]_[A8C]_T3.1] | 2000
46 | UCUCUUUGUAGCUGUCUCUU (ssRNA) [Ic_S1_P3E.1_K3.1_C3.1_H3.1_A3.1_[T5G]_[A6C]_F3.1_[A8G]_T3.1] | 864
47 | UCUCUUUGUAGUCUUCUCUU (ssRNA) [Ic_S1_P3E.1_K3.1_C3.1_H3.1_A3.1_[T5G]_[A6T]_F3.1_[T7C]_[A8T]_T3.1] | 513
48 | UCUCUUUGUAGCGUUCUCUU (ssRNA) [Ic_S1_P3E.1_K3.1_C3.1_H3.1_A3.1_[T5G]_[A6C]_F3.1_[T7G]_[A8T]_T3.1] | 1510
49 | UCUCUUUGUAGUGCUCUCUU (ssRNA) [Ic_S1_P3E.1_K3.1_C3.1_H3.1_A3.1_[T5G]_[A6T]_F3.1_[T7G]_[A8C]_T3.1] | > 2300
50 | UCUCUUUGUAGCAGUCUCUU (ssRNA) [Ic_S1_P3E.1_K3.1_C3.1_H3.1_A3.1_[T5G]_[A6C]_F3.1_[T7A]_[A8G]_T3.1] | 1740

— paper PMC9352680, “A comprehensive thermodynamic model for RNA binding by the Saccharomyces cerevisiae Pumilio protein PUF4”
